System: target antigen-expressing cell line
Test: Jurkat NFAT-GFP assay, coculture with target cell lines expressing the respective target antigen (summary Table 10A)
Assay type: cell-based, human
Set-up: key: The signs +/−, +, 2+ etc. after the name of the cell lines indicate the relative degree of positivity on the Jurkat-NFAT-GFP assay as measured by the % GFP positive cells; +: relative degree of positivity on the Jurkat-NFAT-GFP assay as measured by the % GFP positive cells; 2+: relative degree of positivity on the Jurkat-NFAT-GFP assay as measured by the % GFP positive cells
Conditions: relative % GFP positive cells; for NFAT-GFP ASSAY Positive Cell lines: HepG2: SIR-expressing Jurkat-NFAT-GFP cells cocultured with HepG2
Protocol: (B) Induction of NFAT promoter driven GFP expression. The control vector- and SIR-expressing Jurkat-NFAT-GFP cocultured for 4-24 hours with the target antigen-expressing cell line (described above) and their ability to bind to the target antigen is assayed by measuring induction of GFP expression using Flow Cytometry. Cellular supernatant is collected and assayed for the induction of cytokines (e.g., IL2).
Jurkat NFAT-GFP Assay For Synthetic Immune Receptors. The Jurkat-NFAT-GFP cells are engineered in such a way that the IL-2 promoter, which carries NFAT binding sites, is cloned upstream of the GFP gene. These cells have been used to study signaling via TCR and CAR. The different SIRs were stably expressed in Jurkat NFAT-GFP cells by lentiviral mediated gene transfer, followed by selection with puromycin. The SIR-expressing Jurkat-NFAT-GFP cells were cocultured with the target cells at E:T ratio of approximately 1:2 for approximately 4 hours to 18 hours. When the interaction between SIRs and their target antigen results in activation of the NFAT pathway, GFP expression is induced.
Induction of GFP expression by coculturing of Jurkat-NFAT-GFP cells expressing different SIR constructs and the different target cells was studied essentially as described previously (Wu, Roybal, Puchner, Onuffer, & Lim, 2015). GFP expression was monitored by FACS analysis. A few representative examples of this assay are shown in the FIG. 13A-B. In panel A, control Jurkat-NFAT-GFP cells or those expressing SIRs targeting CD19 (clone ID 051716-I08), MPL (Clone ID: 040716-A07) and BCMA (Clone ID: 011116-A07) were incubated with RAJI (top), HEL (middle) or U266 (bottom) cells, respectively. […] In panel B, Jurkat cells expressing SIR targeting CDH6 (Clone ID: 051716-J05), CD276 (Clone ID: 050516-Q06) and Her2/neu (Clone ID: 050516-I03) were incubated with SKOV3 (top) and […] (middle and bottom) cells, respectively. […] The Jurkat-NFAT-GFP cells were engineered to express different SIRs targeting other antigens and the experiment repeated upon coculture with the target cells expressing their respective target antigen. The Jurkat-NFAT-GFP (parental) cells were used as control. The names of different SIRs, their SEQ ID NOs, component antigen binding domains and TCR chains can be determined by reference to Tables 7A-7H. A SIR is considered positive in the assay in case the SIR expressing Jurkat-NFAT-GFP cells show greater % GFP positive cells when cultured with the target cell line as compared to parental Jurkat-NFAT-GFP cells. […] The signs +/−, +, 2+ etc. after the name of the cell lines indicate the relative degree of positivity on the Jurkat-NFAT-GFP assay as measured by the % GFP positive cells after culture of the SIR expressing Jurkat-NFAT-GFP cells with that cell line. […] In addition, great diversity of response against the same target cell line is observed with Jurkat cells expressing SIRs containing different antigen binding domains targeting the same antigen (e.g., SIRs having antigen binding domains derived form different CD19 antibodies) even when the SIRs share the same TCR chains and linkers. Finally, Jurkat cells expressing SIRs targeting different antigens (e.g. CD19 vs CD20) show a diversitiy of response when exposed to the same target cell line. Thus, a diverse immune response can be generated against a single target cell by combining SIRs with different TCR chains, linkers, antigen binding domains and target specificity. Table 10A also summarizes the results of GLuc based T cell cytotoxicity assay observed with different SIRs when exposed to their target cell lines. […]

B1: 012417-H04 (protein)
chain: MALPVTALLLPLALLLHAARPLEGKPIPNPLLGLDSTGSGEDLKNVFPPEVAVFEPSKAEIAHTQKATLVCLATGFYPDHVELSWWVNGKEVHSGVCTDPQPLKEQPALNDSRYCLSSRLRVSATFWQNPRNHFRCQVQFYGLSENDEWTQDRAKPVTQIVSAEAWGRADCGITSASYHQGVLSATILYEILLGKATLYAVLVSALVLMAMVKRKDSRGRAKRSGSGATNFSLLKQAGDVEENPGPTSMALPVTALLLPLALLLHAARPDIVMTQSPATLSLSPGERATLSCRSSKSLQNVNGNTYLYWFQQKPGQSPQLLIYRMSNLNSGVPDRFSGSGSGTEFTLTISSLEPEDFAVYYCMQHLEYPITFGAGTKLEIKGGGGSGGGGSGGGGSEVQLVESGGGLVKPGGSLKLSCAASGYTFTSYVMHWVRQAPGKGLEWIGYINPYNDGTKYNEKFQGRVTISSDKSISTAYMELSSLRSEDTAMYYCARGTYYYGTRVFDYWGQGTLVTVSSTREQKLISEEDGSGIQNPDPAVYQLRDSKSSDKSVCLFTDFDSQTNVSQSKDSDVYITDKCVLDMRSMDFKSNSAVAWSNKSDFACANAFNNSIIPEDTFFPSSDVPCDVKLVEKSFETDTNLNFQNLSVIGFRILLLKVAGFNLLMTLRLWSSRAKRSGSGVKQTLNFDLLKLAGDVESNPGPSRGHMTEYKPTVRLATRDDVPRAVRTLAAAFADYPATRHTVDPDRHIERVTELQELFLTRVGLDIGKVWVADDGAAVAVWTTPESVEAGAVFAEIGPRMAELSGSRLAAQQQMEGLLAPHRPKEPAWFLATVGVSPDHQGKGLGSAVVLPGVEAAERAGVPAFLETSAPRNLPFYERLGFTVTADVEVPEGPRTWCMTRKPGA
- NFAT-GFP ASSAY Positive Cell lines: NALM6 (SIR-expressing Jurkat-NFAT-GFP cells cocultured with NALM6): (+)
- NFAT-GFP ASSAY Positive Cell lines: RAJI (SIR-expressing Jurkat-NFAT-GFP cells cocultured with RAJI): RAJI (2+), NALM6

B2: 012617-M05 (protein)
chain: MALPVTALLLPLALLLHAARPLEGKPIPNPLLGLDSTGSGEDLKNVFPPEVAVFEPSKAEIAHTQKATLVCLATGFYPDHVELSWWVNGKEVHSGVCTDPQPLKEQPALNDSRYCLSSRLRVSATFWQNPRNHFRCQVQFYGLSENDEWTQDRAKPVTQIVSAEAWGRADCGITSASYHQGVLSATILYEILLGKATLYAVLVSALVLMAMVKRKDSRGRAKRSGSGATNFSLLKQAGDVEENPGPTSMALPVTALLLPLALLLHAARPQSVLTQPASVSGSPGQSITISCTGTSSDVGGYNYVSWYQQHPGKAPKLMIYDVNNRPSEVSNRFSGSKSGNTASLTISGLQAEDEADYYCSSYTTGSRAVFGGGTKLTVLGGGGGSGGGGSGGGGSEVQLVQSGAEVKKPGESLTISCKASGYSFPNYWITWVRQMSGGGLEWMGRIDPGDSYTTYNPSFQGHVTISIDKSTNTAYLHWNSLKASDTAMYYCARYYVSLVDIWGQGTLVTVSSTREQKLISEEDGSGIQNPDPAVYQLRDSKSSDKSVCLFTDFDSQTNVSQSKDSDVYITDKCVLDMRSMDFKSNSAVAWSNKSDFACANAFNNSIIPEDTFFPSSDVPCDVKLVEKSFETDTNLNFQNLSVIGFRILLLKVAGFNLLMTLRLWSSRAKRSGSGVKQTLNFDLLKLAGDVESNPGPSRGHMTEYKPTVRLATRDDVPRAVRTLAAAFADYPATRHTVDPDRHIERVTELQELFLTRVGLDIGKVWVADDGAAVAVWTTPESVEAGAVFAEIGPRMAELSGSRLAAQQQMEGLLAPHRPKEPAWFLATVGVSPDHQGKGLGSAVVLPGVEAAERAGVPAFLETSAPRNLPFYERLGFTVTADVEVPEGPRTWCMTRKPGA
- NFAT-GFP ASSAY Positive Cell lines: HepG2: HepG2 (2+)

B3: 021317-E02 (protein)
chain: MALPVTALLLPLALLLHAARPLEGKPIPNPLLGLDSTGSGEDLKNVFPPEVAVFEPSKAEIAHTQKATLVCLATGFYPDHVELSWWVNGKEVHSGVCTDPQPLKEQPALNDSRYCLSSRLRVSATFWQNPRNHFRCQVQFYGLSENDEWTQDRAKPVTQIVSAEAWGRADCGITSASYHQGVLSATILYEILLGKATLYAVLVSALVLMAMVKRKDSRGRAKRSGSGATNFSLLKQAGDVEENPGPTSMALPVTALLLPLALLLHAARPQSVLTQPPSVSGAPGQRVTISCTGSSSNIGAGYDVHWYQQLPGTAPKLLIFGNSNRPSGVPDRFSGFKSGTSASLAITGLQAEDEADYFCQSYDSSLSGSGVFGTGTKVTVLGGGGGSGGGGSGGGGSQMQLVQSGGGLVQPGRSLRLSCAASGFTFDDYAMHWVRQAPGKGLEWVSGISWNSGSIGYADSVKGRFTISRDNAKNSLYLQMNSLRAEDTALYYCAKDIHSGSYYGLLYYAMDVWGQGTTVTVSSTREQKLISEEDGSGIQNPDPAVYQLRDSKSSDKSVCLFTDFDSQTNVSQSKDSDVYITDKCVLDMRSMDFKSNSAVAWSNKSDFACANAFNNSIIPEDTFFPSSDVPCDVKLVEKSFETDTNLNFQNLSVIGFRILLLKVAGFNLLMTLRLWSSRAKRSGSGVKQTLNFDLLKLAGDVESNPGPSRGHMTEYKPTVRLATRDDVPRAVRTLAAAFADYPATRHTVDPDRHIERVTELQELFLTRVGLDIGKVWVADDGAAVAVWTTPESVEAGAVFAEIGPRMAELSGSRLAAQQQMEGLLAPHRPKEPAWFLATVGVSPDHQGKGLGSAVVLPGVEAAERAGVPAFLETSAPRNLPFYERLGFTVTADVEVPEGPRTWCMTRKPGA
- NFAT-GFP ASSAY Positive Cell lines: HepG2: HepG2 (+)

B4: 051816-Z01 (protein)
chain: MALPVTALLLPLALLLHAARPDVQMIQTPSSLSASLGDRVTISCRASQDIGNYLNWYQQKPDGTVKLLIYYTSRLHSGVPSRFSGSGSGTEYSLTISNLEQEDIATYFCQQGSALPPTFGGGTKLEINLEGKPIPNPLLGLDSTGSGEDLKNVFPPEVAVFEPSKAEIAHTQKATLVCLATGFYPDHVELSWWVNGKEVHSGVCTDPQPLKEQPALNDSRYCLSSRLRVSATFWQNPRNHFRCQVQFYGLSENDEWTQDRAKPVTQIVSAEAWGRADCGITSASYHQGVLSATILYEILLGKATLYAVLVSALVLMAMVKRKDSRGRAKRSGSGATNFSLLKQAGDVEENPGPTSMDWIWRILFLVGAATGAHSFEALQLQQSGAELVRPGASVTLSCKASGYTFTDYEMHWVKQTPVHGLEWIGAIDPETGGTAYNQKFEGKAILTADKSSSTAYMELRSLTSEDSPVYYCARRRYYGSSSFDYWGQGTTLTVSSTREQKLISEEDGSGIQNPDPAVYQLRDSKSSDKSVCLFTDFDSQTNVSQSKDSDVYITDKCVLDMRSMDFKSNSAVAWSNKSDFACANAFNNSIIPEDTFFPSSDVPCDVKLVEKSFETDTNLNFQNLSVIGFRILLLKVAGFNLLMTLRLWSSRAKRSGSGVKQTLNFDLLKLAGDVESNPGPSRGHMTEYKPTVRLATRDDVPRAVRTLAAAFADYPATRHTVDPDRHIERVTELQELFLTRVGLDIGKVWVADDGAAVAVWTTPESVEAGAVFAEIGPRMAELSGSRLAAQQQMEGLLAPHRPKEPAWFLATVGVSPDHQGKGLGSAVVLPGVEAAERAGVPAFLETSAPRNLPFYERLGFTVTADVEVPEGPRTWCMTRKPGA
modifications: Synthetic Immune Receptor (SIR)
- NFAT-GFP ASSAY Positive Cell lines: LAN5 (SIR-expressing Jurkat-NFAT-GFP cells cocultured with LAN5): LAN5 (2+)

Reference: US12269859B2, “Synthetic immune receptors and methods of use thereof” (Angeles Therapeutics, Inc., priority 2016, dated 2025)
